A short description of this data set: yeast display, Sf9 membrane polyspecificity reagent, FACS + sequencing; frameworks hold sequencing errors. In outline: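 Galactose induction of a Saccharomyces cerevisiae BJ5465 synthetic nanobody display library ran 36–48 hours. The cells were then stained for 1 hour at 4 °C with 10% biotinylated, detergent-solubilized Sf9 membrane reagent, pulled down on streptavidin microbeads and FACS-sorted into low and high (top ~1%) gates on expression and reagent-binding fluorescence. Labels for polyreactivity follow the gate of origin.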
In the case of “QVQLVESGGGLVQAGGSLRLSCAASGSIFGTYPMGWYRQAPGKERELVAAITRRGGSTFYADSVKGRFTISRDNAKNTVYLQMNSLKPEDTAVYYCAAPPYYWGQGTQVTVSS”, the “polyreactivity (PSR sort gate)” value is recorded as “high polyreactivity”.
Turning to “QVQLVESGGGLVQAGGSLRLSCAASGSIFGTYTMGWYRQAPGKERELVAAISRSGTSTYYADSVKGRFTISRDNAKNTVYLQMNSLKPEDTAVYYCAASPDPYWRRMDYWGQGTQVTVSS”, the “polyreactivity (PSR sort gate)” value is given as “high polyreactivity”.
In the case of “QVQLVESGGGLVQAGGSLRLSCAASGSIFGTYTMGWYRQAPGKERELVASISRRGGSTYYADSVKGRFTISRDNAKNTVYLQMNSLKPEDTAVYYCAKPVYYLPGEYDYWGQGTQVTVSS”, the “polyreactivity (PSR sort gate)” value is listed as “high polyreactivity”.
As to “QVQLVESGGGLVQAGGSLRLSCAASGSIFGVNAMGWYRQAPGKERELVAAISRGTSTSYADSVKGRFTISRDNAKNTVYLQMNSLKPEDTAVYYCAAEVYWRGWWYGYWGQGTQVTVSS”, the “polyreactivity (PSR sort gate)” value is “high polyreactivity”.
As for “QVQLVESGGGLVQAGGSLRLSCAASGSIFGVYAMGWYRQAPGKERELVAAISQSGGRTYYADSVKGRFTISRDNAKNTVYLQMNSLKPEDTAVYYCAAVVFNVYRRYWGQGTQVTVSS”, the entry is “high polyreactivity”.
For “QVQLVESGGGLVQAGGSLRLSCAASGSIFGVYDMGWYRQAPGKERELVAVINSNGGSTYYADSVKGRFTISRDNAKNTVYLQMNSLNPEDTAVYYCAADYQSYVYIGYGYWGQGTQVTVSS”, the “polyreactivity (PSR sort gate)” value is recorded as “low polyreactivity”.
As for “QVQLVESGGGLVQAGGSLRLSCAASGSIFGVYTMGWYRQAPGKERELVAAITSAGSTYAYSVKGRFTISRDNAKNTVYLQMNSLKPEDTAVYYCNAQSVLLSLRVELREPHEYWGQGTQVTVSS”, the entry is “low polyreactivity”; as for “QVQLVESGGGLVQAGGSLRLSCAASGSIFGWNTMGWYRQAPGKERELVAAITWTGGRTYYADSVKGRFTISRDNAKNTVYLQMNSLKPEDTAVYYCNALRVIRGGIKGDYWGQGTQVTVSS”, “high polyreactivity”.
With “QVQLVESGGGLVQAGGSLRLSCAASGSIFGWYAMGWYRQAPGKERELVAAISSSDGSTYYADSVKGRFTISRDNAKNTVYLQMNSLKPEDTAVYYCATDSAFTYAQYDYWGQGTQVTVSS”, the “polyreactivity (PSR sort gate)” value is reported as “low polyreactivity”.
Consider “QVQLVESGGGLVQAGGSLRLSCAASGSIFGWYAMGWYRQAPGKVRELVATITDRGGRTYYADSVKGRFTISRDNAKNTVYLQMNSLTPEDTAVYDCAADAWPFEAESDSWGQGTQVTVSS”, for which the “polyreactivity (PSR sort gate)” value was “low polyreactivity”.
For the sequence “QVQLVESGGGLVQAGGSLRLSCAASGSIFGWYVMGWYRQEAGKERELVAANSSVGSTYYADSVKGRFTISRDNAKNTVYLQMNSLKPEDTAVYYCAKLRYPYLFWDDSEYWGQGTQVTVSS”, the “polyreactivity (PSR sort gate)” value is on record as “low polyreactivity”.
With “QVQLVESGGGLVQAGGSLRLSCAASGSIFGYAMGWYRQAPGKARELVAAISFSGVSTYYADSVKGRFTITRDNAKNTVYLQMNSLKPEDTAGYYCNAYSDGDEDYWGQGTQVNVSS”, the “polyreactivity (PSR sort gate)” value was “low polyreactivity”.
As for “QVQLVESGGGLVQAGGSLRLSCAASGSIFGYAMGWYRQAPGKERELVAAITVSGGRTYYADSVKGRFTISRDNAKNTVYLQMNSLKPEDTAVYYCAAYYIKGYSPGYWGQGTQVTVSS”, the entry is “high polyreactivity”; as for “QVQLVESGGGLVQAGGSLRLSCAASGSIFGYNAMGGYRHAPGKEREFVAAINSGGSTYYADSVKGRFTISRDNAKITVYLQLNSLKPEDTAVYYCRRRNVYSTRRYEYWGQGTQVTVSS”, “high polyreactivity”; as for “QVQLVESGGGLVQAGGSLRLSCAASGSIFGYNAMGWYRQAPGKERELVAAINYNGGRTYYADSVKGRFTISRDNAKNTVYLQMNSLKPEDTAVYYCATQGRSLYYRYDYWGQGTQVTVSS”, “high polyreactivity”.
In the case of “QVQLVESGGGLVQAGGSLRLSCAASGSIFGYNAMGWYRQAPGKERELVAAIRRSGSSTYYADSVKGRFTISRDNAKNTVYLQMNSLKPEDTAVYYCNRVPRPVADQEYDYWGQGTQVTVSS”, the “polyreactivity (PSR sort gate)” value is “low polyreactivity”.
As for “QVQLVESGGGLVQAGGSLRLSCAASGSIFGYNAMGWYRQAPGKERELVAAISLSGSSTYYADSVKGRFTISRDNAKNTVYLQMNSLKPEDTAVYYCAALYQWRRVFYTSYGYWGQGTQVTGSS”, the entry is “high polyreactivity”.
As for “QVQLVESGGGLVQAGGSLRLSCAASGSIFGYNAMGWYRQAPGKERELVAAISLTTGSTYYADSVKGRFTISRDNAKNTVYLQMNSLKPEDTAVYYCAAVDADYYYWGQGTQVTVSS”, the entry is “high polyreactivity”.
Turning to “QVQLVESGGGLVQAGGSLRLSCAASGSIFGYNDMGWYRQAPGKERELVAAITTSGDSTYYADSVKGRFTISRDNAKNTVYLQMTSLKPEDTAVYYCNGDGEVVDWYHPYYVEYDYWGQGTQVTVSS”, the “polyreactivity (PSR sort gate)” value was “low polyreactivity”.
As for “QVQLVESGGGLVQAGGSLRLSCAASGSIFGYNTMGWYRQAPGKERDLVADISVSGDDTYYADSVKGRFTISRDNAKITVYLQMNSLKPEDTAVYYCNADEYYGYYHTYDYWGQGTQVTVSS”, the entry is “low polyreactivity”; as for “QVQLVESGGGLVQAGGSLRLSCAASGSIFGYNVMGWYRQAPGKERELVAAINYSGGRTYYADSVKGRFTISRDNAKNTVYLEMNSLKPEDTAVYYCAAVPLSRYTVFNYDYWGQGTQVTVSS”, “high polyreactivity”; as for “QVQLVESGGGLVQAGGSLRLSCAASGSIFGYNVMGWYRQAPGKEWELVAAITYSGGSTYYADSVKGRFTISRDNAKNTVYLQMNSLKPEDTAVFYCNAVTLRRIYSNPEYDSWGQGTQVSVSS”, “high polyreactivity”.
In the case of “QVQLVESGGGLVQAGGSLRLSCAASGSIFGYYAMGWSRQAPGKEREVVAAISASGGSTYYADSVKGRFTISRDTAKNTVYLQMNSLKPEDTAVYYCAAVRSVTYIWARYPYGLEYWGQGTQVTVSS”, the “polyreactivity (PSR sort gate)” value is listed as “high polyreactivity”.
As for “QVQLVESGGGLVQAGGSLRLSCAASGSIFGYYAMGWYRPAPGKERELVAAISGSAGTTYYADSVKGRFTISRDNAKNTVYLQMNSLKPEDTAVYYCAKYYPYIQADYGYDYWGQGTQVTVSS”, the entry is “low polyreactivity”; as for “QVQLVESGGGLVQAGGSLRLSCAASGSIFGYYAMGWYRQAPGKEREFVATISTSGVSTYYADSVKGRFTISRDNAKNTVYLQMNSLKPEDTAVYYCNAYLWYTGWDYDGEDYWGQGTQVTVSS”, “low polyreactivity”.
As for “QVQLVESGGGLVQAGGSLRLSCAASGSIFGYYAMGWYRQAPGKERELVAAIDSGGSTYYADSVKGRFTISRDNAKNTVYLQMNSLKPEDTAVYYCATDYSGLRYDYWGQGTQVTVSS”, the entry is “low polyreactivity”.
On to “QVQLVESGGGLVQAGGSLRLSCAASGSIFGYYAMGWYRQAPGKERELVAAIRRSGGSTYYADSVKGRFTISRDNAKNTVYLQMNSLKPEDTAVYYCAARFKSSDWHYYYWGQGTQVTVSS”, for which the “polyreactivity (PSR sort gate)” value is “high polyreactivity”.
“QVQLVESGGGLVQAGGSLRLSCAASGSIFGYYAMGWYRQAPGKERELVAAIRTTGGRTYYADSVKGRFTISRDNAKNTVYLQMNSLKPEDTAVYYCNALQAGVSYDYWGQGTQVTVSS”: the “polyreactivity (PSR sort gate)” value is given as “high polyreactivity”.
As for “QVQLVESGGGLVQAGGSLRLSCAASGSIFGYYAMGWYRQAPGKERELVAAISGSGGSTYYADSVKGRFTISRDNAKNTVYLQMNSLKPEDTAVYYCDRVRGGYDKMYYWGQGTQVTVSS”, the entry is “high polyreactivity”.
As for “QVQLVESGGGLVQAGGSLRLSCAASGSIFGYYAMGWYRQAPGKERELVAAISSSGASTYYADSVKGRFTISRDNAKNTVYLQMNSLKPEDTAVYYCNADRRYPTRGGYWGQGTQVTVSS”, the entry is “high polyreactivity”; as for “QVQLVESGGGLVQAGGSLRLSCAASGSIFGYYAMGWYRQAPGKERELVAAISYSGGSTYYADSVKGRFTISRDNAKNTVYVQMNSLKPEDTAVYYCAARYASTPYARFGYWGQGSQVTVSS”, “high polyreactivity”; as for “QVQLVESGGGLVQAGGSLRLSCAASGSIFGYYAMGWYRQAPGKERELVAAITTRGGRTYYADSVKGRFTISRDNAKNTVYLQMNSLNPEDTAVYYCAARTGRGRYDYWGQGTQVTVSS”, “high polyreactivity”.
As for “QVQLVESGGGLVQAGGSLRLSCAASGSIFGYYAMGWYRQAPGKERELVAAITWRGGTYYADSVKGRFTISRDNAKNTVYLQMNSLKPEDTAVYYCAAPRLATYQWYDYWGQGTQVTVSS”, the entry is “high polyreactivity”; as for “QVQLVESGGGLVQAGGSLRLSCAASGSIFGYYAMGWYRQAPGKERELVAAITYSGGRTYYADSVKGRFTISRDNAKNTVYLQMNSLKPEDTAVYYCARAPPGDRFVRYDYWGQGTQVTVSS”, “high polyreactivity”.
For “QVQLVESGGGLVQAGGSLRLSCAASGSIFGYYAMGWYRQAPGKERELVASITRSGDTTYYADSVKGRFTISRDNAKNTVYLQMNSLKPEDTAVYYCAARRWRWYYDGFVRMDYWGQGTQVTVSS”, the “polyreactivity (PSR sort gate)” value is “high polyreactivity”.
Take “QVQLVESGGGLVQAGGSLRLSCAASGSIFGYYAMGWYRQAPGKERELVASITSDTSTNYADSVKGRFTISRDNAQNTVYLQMNSLKPEDTAVYYCNARIAKWKRGYSSTFDYWGQGTQVTVSS”: the “polyreactivity (PSR sort gate)” value is reported as “low polyreactivity”.
Regarding “QVQLVESGGGLVQAGGSLRLSCAASGSIFGYYAMGWYSQAPGKERELVAAFTASGGSTYYADSVKGRFTISRDNAKNTVYFQMNSLKPEDTAVYYCAAGTHTDYGRYYYWGQGTQVTVSS”, the “polyreactivity (PSR sort gate)” value is recorded as “low polyreactivity”.
As for “QVQLVESGGGLVQAGGSLRLSCAASGSIFGYYAMGWYTQAPGKERELVASITRGGSTYYADSVKGRFTISRDNAKNTVYLQMNSLKPEDTAVYYCAAAQWWFRVRGARYYYWGQGTQVTVSS”, the entry is “high polyreactivity”.
On to “QVQLVESGGGLVQAGGSLRLSCAASGSIFGYYTIGWYRQAPGKEREFVAAITQSGGSTYYADSVKGRFTISRDNAKNTVYLQMNSLKPEDTAVYYCAKQGYLKWGGTGDYWGQGTQVTVSS”, for which the “polyreactivity (PSR sort gate)” value was “high polyreactivity”.
As for “QVQLVESGGGLVQAGGSLRLSCAASGSIFGYYTMGWYIQAPGKERELVAAITSGGSTNYADSVKGRFTISRDNAKNTVYLQMNSLKPEDTAVYYCAKVSYYPWRYDYWGQGTQVTVSS”, the entry is “low polyreactivity”; as for “QVQLVESGGGLVQAGGSLRLSCAASGSIFGYYTMGWYIQAPGKERELVATITSGGSTYYADSVKGRFTISRDNAKNSVSLQMNSLKPEDTAVYYCNADRYWRVYWGQGTQVTVSS”, “high polyreactivity”.

Source of the values: the nanobody polyreactivity screen of Harvey et al. (2022).
